In the nanobody polyreactivity screen of Harvey et al. (2022):

Assay: yeast display, Sf9 membrane polyspecificity reagent, FACS + sequencing; frameworks hold sequencing errors
In short: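 In a synthetic yeast display library (Saccharomyces cerevisiae BJ5465), nanobody expression was induced with galactose for 36–48 hours. FACS gates were set low and high (top ~1%) using anti-HA fluorescence for expression and streptavidin fluorescence for binding of the Sf9 membrane reagent. Each polyreactivity label is drawn from the gate of origin.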
With “QVQLVESVGGLVQAGGSLRLSCAASGFIYGWNAMGWYRQAPVKERELVASIRSSGGTTYADSVKGRFTISRDNAKNTVYLQMNSLKAEDNAVYYCARRVLGLLELDYWGQGTQVTVSS” the “polyreactivity (PSR sort gate)” value was “low polyreactivity”.
For “QVQLVESVGGLVQAGGSLRLSCAASGFTFDYYSMGWYRQATGKERELVAAITTAGSTNYADSVKGRFTISRDNAKNTVSLQINSLKPEDTAVYYCAAYWWPWDISWDDYWGQGTQVNVSS”, the “polyreactivity (PSR sort gate)” value was “high polyreactivity”.
In the case of “QVQLVESVGGLVQAGGSLRLSCAASGFTFGRYAMGWYRQAPGKESELVATITRTGSTNYADSVKGRFTISRDNAKNTVYLQMNSLKPEDTAVYYCAKDWAYRRHWVGFYYWGLGTQVTVSS”, the “polyreactivity (PSR sort gate)” value is reported as “low polyreactivity”.
In the case of “QVQLVESVGGLVQAGGSLRLSCAASGFTFVGNTMGWYRQAPGKERELVAAIRGRDGRTYYADSVKGRFTISRDNAKNTVYLQMNSLKPEDTAVYYCNVDVKYSVRSEFDFWGQGTQVTVSS”, the “polyreactivity (PSR sort gate)” value is reported as “low polyreactivity”.
In the case of “QVQLVESVGGLVQAGGSLRLSCAASGFTFYKYAMGWYRQAPGKEREFVAAIRTRSDSTYYADSVKGRFTISRDNAKNTVYLQMNSLKPEDTAVYYCAAQGYVEVGYSRYYYWGQGTQVTVSS”, the “polyreactivity (PSR sort gate)” value is reported as “high polyreactivity”.
For “QVQLVESVGGLVQAGGSLRLSCAASGIIFVGYAMGWYRPAPGKERELVSAIDLSGDSTYYADSVKGRFTISRDNAKNTVYLQMNSLKPEDTAVYYCAAGYWHRVNGDYDYWGQGTQVTVSS”, the “polyreactivity (PSR sort gate)” value was “high polyreactivity”.
In the case of “QVQLVESVGGLVQAGGSLRLSCAASGITFGRNTMGWYRQAPGKERELVAAISWNGDSTYYADSVKGRFTISRDNAKNTVYLQMNSLKPEDTAVYYCNADDVFLYQTDGLGDYWGQGTQVTVSS”, the “polyreactivity (PSR sort gate)” value is reported as “low polyreactivity”.
For “QVQLVESVGGLVQAGGSLRLSCAASGITFNEYAMGWYRQATGKARELVAAISRRGGSTYYADSVKGRFTISRDNAKNTVYLQMYSLKPEDTAVYYCAADPGTPRYQFLWYGYWGQGTQVTVSS”, the “polyreactivity (PSR sort gate)” value was “low polyreactivity”.
With “QVQLVESVGGLVQAGGSLRLSCAASGITFRRYAMGWYRQAPGKERELVATIRNSGGGTYYADSVKGRFTISRDNAKNTVYLQMNSLKPEDTAVYYCAAELYFTYYYWGQGTQVTVSS” the “polyreactivity (PSR sort gate)” value was “high polyreactivity”.
In the case of “QVQLVESVGGLVQAGGSLRLSCAASGLTFRKYAMGWYRQAPGKERELVAGISSGGSTYYADSVKGRFTISRDNAKNTVYLQMNSLKPEDTAVYYCAAKALRTMYYWGQGTQVTVSS”, the “polyreactivity (PSR sort gate)” value is reported as “high polyreactivity”.
In the case of “QVQLVESVGGLVQAGGSLRLSCAASGRIFGSNAMGWYRPAPGKERELVAAISLSGTSTYYADSVKGRFTISRDNAKNTVYLQMNSLKPEDTAVYYCAAGLPGGTYFWGQGTQVTVSS”, the “polyreactivity (PSR sort gate)” value is reported as “high polyreactivity”.
In the case of “QVQLVESVGGLVQAGGSLRLSCAASGRIFGYNDMGWYRQEPGKERELVAVISTSGTITYYADSVKGRFTISRDNAKNTVYLQMNSLKPEDTAVYNCAAGSYSRYLYSLYFDFDYWGQGTQVTVSS”, the “polyreactivity (PSR sort gate)” value is reported as “low polyreactivity”.
For “QVQLVESVGGLVQAGGSLRLSCAASGRIFPYYAMGWYIQAPGKERELVATITWRGGITYYADSVKGRFTISRDNAKNTVYLQMNSLKPEDTSVYYCAVRKVYRSSFDYWGQGTQVTVSS”, the “polyreactivity (PSR sort gate)” value was “high polyreactivity”.
For “QVQLVESVGGLVQAGGSLRLSCAASGRIFRWNAMGWYRQAPGKEREFVAAISWSGGSTYYADSVKGRFTISRDNAKNTFYLQMNSLKPEDTAVYYCNKVGYYCVGTSQEFDYWGQGTQVTVSS”, the “polyreactivity (PSR sort gate)” value was “high polyreactivity”.
For “QVQLVESVGGLVQAGGSLRLSCAASGRIFRYYAMGWSRQAPGKERELVAGISRGTSTYYADSVKGRFTISRDNAKNTVYLQMNSLKPEDTAVYYCAKGSIQYFRPYTFYTWGQGTQVTVSS”, the “polyreactivity (PSR sort gate)” value was “high polyreactivity”.
With “QVQLVESVGGLVQAGGSLRLSCAASGRTFAYTAMGWYRQARGKDREWLAAITWSGDSTYYADSVKGRFTISRDNAKNTVSLQKNSLKPEDTAVYYCAADYFGGPSYEFVYWGQGTQVTGSS” the “polyreactivity (PSR sort gate)” value was “low polyreactivity”.
In the case of “QVQLVESVGGLVQAGGSLRLSCAASGRTFFYNAMGWYRQAPAKERELVAAIDWSGDSTYYADSVKGRFTISRDNAKNTVYLQMNSLKPEDTAVYYCAARRKNRRDYDYYYWGQGTQVTVSS”, the “polyreactivity (PSR sort gate)” value is reported as “high polyreactivity”.
